Assay results from patent publication US20220402989A1 (Regeneron, published 2022).
One block for each binder: values may come before it.

Legend:
[1] = target: human PD1 (amino acids M1-L288 of NP_005009.2 with a 2Q=>E mutation) stably expressed on engineered reporter … (human, UniProt Q15116 25-288); assay: cell-based or functional assay
[2] = target: T1, human PD-1 expressed with a C-terminal myc-myc-hexahistidine tag (human); assay: SPR (Biacore), antibody captured via anti-human Fc, hPD-1.mmH in solution, 25 C
T1 construct: also called hPD-1.mmH; hPD-1.mmh
Method: The CM5 Biacore sensor surface was derivatized by amine coupling with a monoclonal mouse anti-human Fc antibody (GE, #BR-1008-39). All Biacore binding studies were performed in a buffer composed of 0.01M HEPES pH 7.4, 0.15M NaCl, 3 mM EDTA, 0.05% v/v Surfactant P20 (HBS-EP running buffer). […] Antibody-reagent association was monitored for 4 or 5 minutes, while dissociation in HBS-EP running buffer was monitored for 10 minutes. […] All binding kinetics experiments were performed at 25° C.
Kinetic association (kₐ) and dissociation (kd) rate constants were determined by fitting the real-time sensorgrams to a 1:1 binding model using Scrubber 2.0c curve fitting software. Binding dissociation equilibrium constants (KD) and dissociative half-lives (t½) were calculated from the kinetic rate constants as: […]

[3] = target: T2, human PD1 expressed endogenously on YT/STAT5 luc/Cl4 cells (human, UniProt Q15116 25-288); assay: flow cytometry (FACS) titration on YT/STAT5 luc/CL4 cells with endogenous hPD1, APC anti-human Fc-gamma secondary, MFI_APC
T2 construct: whole, on cells; also called hPD1; PD1+ cells
Method: To compare hPD1 binding of αhPD1-IL2Rα-IL2 proteins to their respective parental anti-hPD1 antibodies, YT/STAT5 luc/Cl4 cells expressing endogenous levels of hPD1 were washed twice with FACS wash (PBS+2% FBS) and resuspended at 1×10\hat{ }6 cells/ml in FACS wash. Cells (100 μl/well) were then plated in 96 well U bottom plates. Cells were spun down (1200 RPM, 5 minutes) and resuspended in 100 μl/well of the various antibody dilutions listed in mAb clone IDs. The antibody titrations were prepared starting at 20 μg/ml with a 6-fold dilution using FACS wash. Cells were incubated with the antibodies for 30 minutes at 4° C. The unbound antibodies were then removed by washing the cells twice using FACS wash. The cells were then resuspended in 100 μl/well of 1:200 dilution of APC-anti-human Fcγ secondary antibody. The cells were incubated for 30 minutes at 4° C. The unbound antibodies were then removed by washing the cells twice using FACS wash. The cells were then resuspended in 160 μl/well of FACS wash and run to test binding using BD FACSCanto™ Flow Cytometer.

T1 sequence (chain, as listed by the source limits assumed): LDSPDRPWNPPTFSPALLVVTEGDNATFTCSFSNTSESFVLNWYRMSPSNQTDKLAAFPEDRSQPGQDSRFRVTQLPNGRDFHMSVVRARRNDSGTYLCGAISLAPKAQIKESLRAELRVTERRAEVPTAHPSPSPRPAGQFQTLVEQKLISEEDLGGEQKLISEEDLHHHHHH
Chain of human PD1 (amino acids M1-L288 of NP_005009.2 with a 2Q=>E mutation) stably expressed on engineered reporter … (Q15116 25-288, change not shown): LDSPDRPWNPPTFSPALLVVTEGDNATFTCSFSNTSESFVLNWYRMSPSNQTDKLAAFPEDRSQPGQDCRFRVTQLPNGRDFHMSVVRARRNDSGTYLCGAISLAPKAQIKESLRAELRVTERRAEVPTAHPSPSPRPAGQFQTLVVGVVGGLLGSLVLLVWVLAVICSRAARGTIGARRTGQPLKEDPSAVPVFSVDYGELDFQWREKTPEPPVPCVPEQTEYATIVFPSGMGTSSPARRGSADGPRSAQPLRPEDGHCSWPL
T2 sequence (Q15116 25-288): as the sequence (Q15116 25-288, change not shown) above

- Fold induction, AP1-Luc PD1 antagonistic assay [1]: 1.29 fold
- 90 nM or 100 nM hPD-1.mmH Bind (RU) [2]: 124 RU
- Kd [2]: 3.1 nM
- koff [2]: 0.000427 s⁻¹
- kon [2]: 138000 M⁻¹ s⁻¹
- t1/2 [2]: 27.1 min
- EC50 [3]: 5.69 nM
B1: mAb29512 (antibody, V domains shown)
VH: QVQLVQSGTEVRKPGSSVKVSCKTSGVTFNNYAITWVRQAPGQGLEWMGGIIPVFSPPNYAQKFQGRVTITADESTNTAYMELNSLRSDDTAIYFCAREGERGYTYGYDYWGQGTLVTVSS
VL: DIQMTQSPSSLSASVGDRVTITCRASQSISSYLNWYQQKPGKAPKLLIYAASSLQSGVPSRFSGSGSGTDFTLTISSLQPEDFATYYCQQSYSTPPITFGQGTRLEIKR
notes: The full chains are those of H4H29512 (human IgG4 Fc with S108P); also called H4H29512

- EC50 (M), AP1-Luc PD1 antagonistic assay [1]: 3.67e-09 M
- Fold induction, AP1-Luc PD1 antagonistic assay [1]: 19.2 fold
- 90 nM or 100 nM hPD-1.mmH Bind (RU) [2]: 88.7 RU
- Kd [2]: 2.56 nM
- koff [2]: 0.000253 s⁻¹
- kon [2]: 98800 M⁻¹ s⁻¹
- t1/2 [2]: 45.7 min
- EC50 [3]: 0.774 nM
B2: REGN2810 (antibody, human IgG4 S228P, kappa, V domains shown)
VH: EVQLLESGGVLVQPGGSLRLSCAASGFTFSNFGMTWVRQAPGKGLEWVSGISGGGRDTYFADSVKGRFTISRDNSKNTLYLQMNSLKGEDTAVYYCVKWGNIYFDYWGQGTLVTVSS
VL: DIQMTQSPSSLSASVGDSITITCRASLSINTFLNWYQQKPGKAPNLLIYAASSLHGGVPSRFSGSGSGTDFTLTIRTLQPEDFATYYCQQSSNTPFTFGPGTVVDFRR
notes: Human IgG4 Fc with the S108P hinge mutation; also called mAb7798; cemiplimab

- Fold induction, AP1-Luc PD1 antagonistic assay [1]: 1.24 fold
- 90 nM or 100 nM hPD-1.mmH Bind (RU) [2]: 52.7 RU
- Kd [2]: 8.95 nM
- koff [2]: 0.00123 s⁻¹
- kon [2]: 137000 M⁻¹ s⁻¹
- t1/2 [2]: 9.4 min
- EC50 [3]: 3.48 nM
B3: mAb9048 (antibody, V domains shown)
VH: QVQLVQSGAEVKRPGSSVKVSCKVSGVTFRNFAIIWVRQAPGQGLEWMGGIIPFFSAANYAQSFQGRVTITPDESTSTAFMELASLRSEDTAVYYCAREGERGHTYGFDYWGQGTLVTVSS
VL: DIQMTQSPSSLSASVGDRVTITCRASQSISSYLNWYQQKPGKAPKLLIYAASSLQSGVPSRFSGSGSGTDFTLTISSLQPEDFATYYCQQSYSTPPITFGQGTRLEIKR
notes: The full chains are those of H4H9048 (human IgG4 Fc with S108P); also called H4H9048
